Results published in patent US20080090770A1 (published 2008).
Where no end group is shown, it is not given here.

Legend:
[1] = target: T1, GST-RIM2 (KIAA0751) PDZ domain 1 (human); test: modified ELISA, plated GST-RIM2 PDZ domain, biotinylated peptide 0.001-10 µM, curve fit; Relative EC50
T1 construct: Construct RIM2, PDZ domain 1-pGEX-3X; vector sites BamH1/EcoR1, insert sites BglII/MfeI; also called GST-RIM2 PDZ domain; RIM3 (as printed once)

[2] = target: T1, GST-RIM2 (KIAA0751) PDZ domain 1; test: modified ELISA, GST-PDZ captured by anti-GST, biotinylated peptide titrated
GST-ZO-1 PDZ domain 2 = target: T2, GST-ZO-1 PDZ domain 2 (human); test: as above
T2 construct: also called ZO-1 d2; ZO1 d2
T2 sequence (chain, as listed by the source): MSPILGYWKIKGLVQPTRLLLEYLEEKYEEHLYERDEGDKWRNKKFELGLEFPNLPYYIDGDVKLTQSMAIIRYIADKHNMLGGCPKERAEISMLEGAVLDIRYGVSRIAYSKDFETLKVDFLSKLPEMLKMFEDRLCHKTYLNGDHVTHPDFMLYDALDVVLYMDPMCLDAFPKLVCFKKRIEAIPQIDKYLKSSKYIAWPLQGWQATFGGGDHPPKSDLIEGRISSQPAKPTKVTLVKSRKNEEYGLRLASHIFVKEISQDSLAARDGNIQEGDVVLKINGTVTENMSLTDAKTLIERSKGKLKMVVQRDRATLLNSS

EGFR = target: T3, EGFR (UniProt P00533 25-1210); test: immunoprecipitation with anti-EGFR from lysates of transfected 293 cells, anti-MUC1-CD immunoblot
T3 construct: also called HER1

FGFR3 = FGFR3 (UniProt P22607 23-806, limits assumed); test: immunoprecipitation with anti-FGFR3 from lysates of transfected 293 cells, anti-MUC1-CD immunoblot
FGFR3, sequence (P22607 23-806 limits assumed): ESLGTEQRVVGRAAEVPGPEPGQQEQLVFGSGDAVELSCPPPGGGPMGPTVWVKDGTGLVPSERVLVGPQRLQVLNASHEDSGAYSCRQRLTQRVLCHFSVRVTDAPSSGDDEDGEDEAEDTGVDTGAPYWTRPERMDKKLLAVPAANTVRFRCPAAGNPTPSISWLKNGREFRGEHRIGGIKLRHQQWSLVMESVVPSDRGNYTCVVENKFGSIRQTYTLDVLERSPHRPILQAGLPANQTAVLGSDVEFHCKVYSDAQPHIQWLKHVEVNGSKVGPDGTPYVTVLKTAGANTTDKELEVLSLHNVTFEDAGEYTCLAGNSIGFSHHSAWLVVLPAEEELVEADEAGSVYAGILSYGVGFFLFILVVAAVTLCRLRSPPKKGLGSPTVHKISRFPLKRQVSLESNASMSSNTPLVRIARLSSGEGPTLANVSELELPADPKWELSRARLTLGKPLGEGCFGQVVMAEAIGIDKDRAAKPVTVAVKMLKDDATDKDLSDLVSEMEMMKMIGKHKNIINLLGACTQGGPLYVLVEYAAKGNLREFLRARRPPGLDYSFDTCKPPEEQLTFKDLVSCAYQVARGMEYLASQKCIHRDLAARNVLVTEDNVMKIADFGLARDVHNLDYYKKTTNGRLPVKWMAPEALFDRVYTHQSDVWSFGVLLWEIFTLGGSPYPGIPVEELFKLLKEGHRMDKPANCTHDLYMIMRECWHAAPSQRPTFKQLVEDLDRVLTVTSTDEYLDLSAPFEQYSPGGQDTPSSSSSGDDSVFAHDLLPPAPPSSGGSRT

[3] = target: GST-LIM Mystique PDZ domain 1 (human); test: modified ELISA, GST-PDZ captured by anti-GST, biotinylated MUC1 peptide titrated, HRP-streptavidin
GST-LIM Mystique PDZ domain 1 (human), sequence (chain, as listed by the source limits assumed): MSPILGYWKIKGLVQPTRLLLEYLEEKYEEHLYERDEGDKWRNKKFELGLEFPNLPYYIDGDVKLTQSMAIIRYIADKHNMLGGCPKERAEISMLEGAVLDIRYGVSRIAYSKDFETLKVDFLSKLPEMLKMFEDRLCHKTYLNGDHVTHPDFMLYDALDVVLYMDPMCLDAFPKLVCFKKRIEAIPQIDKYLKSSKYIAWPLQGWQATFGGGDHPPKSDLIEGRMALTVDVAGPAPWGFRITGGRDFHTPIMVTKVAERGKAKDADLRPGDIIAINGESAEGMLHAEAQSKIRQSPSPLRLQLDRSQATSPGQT

[4] = target: T1, GST-RIM2 (KIAA0751) PDZ domain 1; test: modified ELISA, peptide titration

T1 sequence (chain, as listed by the source): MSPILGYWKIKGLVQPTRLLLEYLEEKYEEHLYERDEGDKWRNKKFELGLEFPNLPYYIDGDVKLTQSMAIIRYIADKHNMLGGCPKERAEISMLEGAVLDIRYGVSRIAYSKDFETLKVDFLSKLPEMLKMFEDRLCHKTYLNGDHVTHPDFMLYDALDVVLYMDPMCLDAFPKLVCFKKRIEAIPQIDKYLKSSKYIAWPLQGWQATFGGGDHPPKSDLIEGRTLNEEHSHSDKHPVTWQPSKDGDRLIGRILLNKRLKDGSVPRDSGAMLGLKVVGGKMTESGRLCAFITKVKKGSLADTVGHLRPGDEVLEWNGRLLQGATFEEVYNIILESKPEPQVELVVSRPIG

B1: YGRKKRRQRRRQDERVETRV (SEQ ID NO: 171) (peptide)
peptide: YGRKKRRQRRRQDERVETRV
modifications: also: biotinylated (position not given here)
notes: TAT plus 9 residues; also called AVC#1855
B1 showed an EC50 [1] of 880 nM.

Binder YGRKKRRQRRRQDEEEGIWA (also: biotinylated, position not given here, also called AVC#1790; AVC 1790) [YGRKKRRQRRRQDEEEGIWA (SEQ ID NO: 137)] has an EC50 [2] of 5 nM, an EC50 (GST-ZO-1 PDZ domain 2) of 50 nM and an EC50 [1] of 5 nM.

B2: YGRKKRRQRRRQDEEEGIWS (SEQ ID NO: 149) (peptide)
peptide: YGRKKRRQRRRQDEEEGIWS
modifications: also: biotinylated, position not given here
notes: TAT plus 9 residues; also called AVC#1833
B2 was tested, and the EC50 [1] was 50 nM.

B3: YGRKKRRQRRRQDEEETIWA (SEQ ID NO: 144) (peptide)
peptide: YGRKKRRQRRRQDEEETIWA
modifications: also: biotinylated (position not given here)
notes: TAT plus 9 residues; also called AVC#1828
B3 was tested, and the EC50 [1] was 240 nM.

B4: YGRKKRRQRRRSRTDRKYWA (SEQ ID NO: 148) (peptide)
peptide: YGRKKRRQRRRSRTDRKYWA
modifications: also: biotinylated (position not given here)
notes: TAT plus 9 residues; also called AVC#1832
B4 showed an EC50 [1] of under 10 nM.

B5: YGRKKRRQRRRSRTDRKYQI (SEQ ID NO: 155) (peptide)
peptide: YGRKKRRQRRRSRTDRKYQI
modifications: also: biotinylated (position not given here)
notes: TAT plus 9 residues; also called AVC#1839
For B5, the EC50 [1] was 22 nM.

For YGRKKRRQRRRLQRRRETQV (also: biotinylated, position not given here, TAT plus 9 residues) [YGRKKRRQRRRLQRRRETQV (AVC#1856)], the EC50 [1] was 33 nM.

B6: YGRKKRRQRRRSRTVREIWA (SEQ ID NO: 150) (peptide)
peptide: YGRKKRRQRRRSRTVREIWA
modifications: also: biotinylated (position not given here)
notes: TAT plus 9 residues; also called AVC#1834
In the case of B6, the EC50 [1] is reported as under 10 nM.

B7: YGRKKRRQRRRAVAATGIWA (SEQ ID NO: 143) (peptide)
peptide: YGRKKRRQRRRAVAATGIWA
modifications: also: biotinylated, position not given here
notes: TAT plus 9 residues; also called AVC#1827
For B7, the EC50 [1] was under 10 nM.

B8: YGRKKRRQRRRKNKDKEYYV (SEQ ID NO: 168) (peptide)
peptide: YGRKKRRQRRRKNKDKEYYV
modifications: also: biotinylated, position not given here
notes: TAT plus 9 residues; also called AVC#1852
In the case of B8, the EC50 [1] is reported as 13 nM.

Binder YGRKKRRQRRRARGDRKRIV (also: biotinylated, position not given here, also called AVC#1796; AVC 1796) [YGRKKRRQRRRARGDRKRIV (SEQ ID NO: 136)] has an EC50 [2] of 20 nM, an EC50 (GST-ZO-1 PDZ domain 2) of 20 nM and an EC50 [1] of 20 nM.

B9: YGRKKRRQRRRARTDRKVEV (SEQ ID NO: 153) (peptide)
peptide: YGRKKRRQRRRARTDRKVEV
modifications: also: biotinylated, position not given here
notes: TAT plus 9 residues; also called AVC#1837
B9 gave an EC50 [1] of 40 nM.

B10: YGRKKRRQRRRARGDRKVPV (SEQ ID NO: 157) (peptide)
peptide: YGRKKRRQRRRARGDRKVPV
modifications: also: biotinylated, position not given here
notes: TAT plus 9 residues; also called AVC#1841
Binder B10 has an EC50 [1] of 45 nM.

B11: YGRKKRRQRRRARGDRKYIV (SEQ ID NO: 154) (peptide)
peptide: YGRKKRRQRRRARGDRKYIV
modifications: also: biotinylated, position not given here
notes: TAT plus 9 residues; also called AVC#1838
B11 gave an EC50 [1] of 13 nM.

B12: YGRKKRRQRRRARSDRKRIV (SEQ ID NO: 167) (peptide)
peptide: YGRKKRRQRRRARSDRKRIV
modifications: also: biotinylated, position not given here
notes: TAT plus 9 residues; also called AVC#1851
B12 showed an EC50 [1] of 47 nM.

B13: YGRKKRRQRRRARGDRYRIV (SEQ ID NO: 161) (peptide)
peptide: YGRKKRRQRRRARGDRYRIV
modifications: also: biotinylated, position not given here
notes: TAT plus 9 residues; also called AVC#1845
B13 gave an EC50 [1] of 38 nM.

B14: YGRKKRRQRRRARGDRKIRV (SEQ ID NO: 152) (peptide)
peptide: YGRKKRRQRRRARGDRKIRV
modifications: also: biotinylated, position not given here
notes: TAT plus 9 residues; also called AVC#1836
For B14, the EC50 [1] was 10 nM.

B15: YGRKKRRQRRRARSDRTIWA (SEQ ID NO: 145) (peptide)
peptide: YGRKKRRQRRRARSDRTIWA
modifications: also: biotinylated, position not given here
notes: TAT plus 9 residues; also called AVC#1829
Work on B15 yielded an EC50 [1] of under 10 nM.

B16: YGRKKRRQRRRARGDRKKIV (SEQ ID NO: 166) (peptide)
peptide: YGRKKRRQRRRARGDRKKIV
modifications: also: biotinylated, position not given here
notes: TAT plus 9 residues; also called AVC#1850
Binder B16 has an EC50 [1] of 47 nM.

B17: YGRKKRRQRRRARGDRLEIV (SEQ ID NO: 163) (peptide)
peptide: YGRKKRRQRRRARGDRLEIV
modifications: also: biotinylated, position not given here
notes: TAT plus 9 residues; also called AVC#1847
B17 was tested, and the EC50 [1] was 132 nM.

B18: YGRKKRRQRRRARGDRRRIV (SEQ ID NO: 165) (peptide)
peptide: YGRKKRRQRRRARGDRRRIV
modifications: also: biotinylated, position not given here
notes: TAT plus 9 residues; also called AVC#1849
B18 showed an EC50 [1] of 37 nM.

B19: YGRKKRRQRRRARSDRGIWA (SEQ ID NO: 142) (peptide)
peptide: YGRKKRRQRRRARSDRGIWA
modifications: also: biotinylated, position not given here
notes: TAT plus 9 residues; also called AVC#1823
With B19 the EC50 [1] was under 10 nM.

B20: YGRKKRRQRRRARGDRKRWL (SEQ ID NO: 141) (peptide)
peptide: YGRKKRRQRRRARGDRKRWL
modifications: also: biotinylated, position not given here
notes: TAT plus 9 residues; also called AVC#1822
B20 showed an EC50 [1] of 8 nM.

B21: YGRKKRRQRRRARSDRKRIA (SEQ ID NO: 147) (peptide)
peptide: YGRKKRRQRRRARSDRKRIA
modifications: also: biotinylated, position not given here
notes: TAT plus 9 residues; also called AVC#1831
Binder B21 has an EC50 [1] of 45 nM.

B22: YGRKKRRQRRRARGDRTIIY (SEQ ID NO: 164) (peptide)
peptide: YGRKKRRQRRRARGDRTIIY
modifications: also: biotinylated, position not given here
notes: TAT plus 9 residues; also called AVC#1848
B22 was tested, and the EC50 [1] was 30 nM.

B23: YGRKKRRQRRRARGDRKRWA (SEQ ID NO: 140) (peptide)
peptide: YGRKKRRQRRRARGDRKRWA
modifications: also: biotinylated, position not given here
notes: TAT plus 9 residues; also called AVC#1821
Binder B23 has an EC50 [1] of 7 nM.

B24: YGRKKRRQRRRARSDRTIIA (SEQ ID NO: 146) (peptide)
peptide: YGRKKRRQRRRARSDRTIIA
modifications: also: biotinylated, position not given here
notes: TAT plus 9 residues; also called AVC#1830
Work on B24 yielded an EC50 [1] of 13 nM.

B25: YGRKKRRQRRRSRTDRLEYV (SEQ ID NO: 162) (peptide)
peptide: YGRKKRRQRRRSRTDRLEYV
modifications: also: biotinylated (position not given here)
notes: TAT plus 9 residues; also called AVC#1846
Binder B25 has an EC50 [1] of 10 nM.

B26: YGRKKRRQRRRSVTSTSINL (SEQ ID NO: 151) (peptide)
peptide: YGRKKRRQRRRSVTSTSINL
modifications: also: biotinylated (position not given here)
notes: TAT plus 9 residues; also called AVC#1835
B26 gave an EC50 [1] of 90 nM.

B27: YGRKKRRQRRRQDERRLIVL (SEQ ID NO: 158) (peptide)
peptide: YGRKKRRQRRRQDERRLIVL
modifications: also: biotinylated (position not given here)
notes: TAT plus 9 residues; also called AVC#1842
For B27, the EC50 [1] was 78 nM.

B28: YGRKKRRQRRRGMTSSSSVV (SEQ ID NO: 169) (peptide)
peptide: YGRKKRRQRRRGMTSSSSVV
modifications: also: biotinylated, position not given here
notes: TAT plus 9 residues; also called AVC#1853
B28 was tested, and the EC50 [1] was 135 nM.

B29: YGRKKRRQRRRARGDVRLML (SEQ ID NO: 156) (peptide)
peptide: YGRKKRRQRRRARGDVRLML
modifications: also: biotinylated, position not given here
notes: TAT plus 9 residues; also called AVC#1840
Work on B29 yielded an EC50 [1] of about 30 nM.

B30: Flag-MUC1-CD(1-68) (other)
chain: CQCRRKNYGQLDIFPARDTYHPMSEYPTYHTHGRYVPPSSTDRSPYEKVSAGNGGSSLSYTNPAVAAT
notes: also called pIRESpuro2-Flag-MUC1-CD(1-68); truncated MUC1 cytoplasmic domain; not shown: Flag tag
B30: no binding (EGFR); no binding (FGFR3).

B31: MUC1 C-terminus peptide NGGSSLSYTNPAVAATSANL (SEQ ID NO: 96) (peptide)
peptide: NGGSSLSYTNPAVAATSANL
modifications: also: biotinylated, position not given here
notes: also called C-terminus of MUC1; MUC1 peptide
In the case of B31, the EC50 [3] is reported as 10 nM.

B32: YGRKKRRQRRRARGTRLVWV (SEQ ID NO: 160) (peptide)
peptide: YGRKKRRQRRRARGTRLVWV
modifications: also: biotinylated, position not given here
notes: TAT plus 9 residues; also called AVC#1844
B32 gave an EC50 [1] of under 10 nM.

B33: YGRKKRRQRRRARGDRLVSL (SEQ ID NO: 159) (peptide)
peptide: YGRKKRRQRRRARGDRLVSL
modifications: also: biotinylated, position not given here
notes: TAT plus 9 residues; also called AVC#1843
B33 showed an EC50 [1] of 68 nM.

YGRKKRRQRRRAVAAASANL (also: biotinylated, position not given here) [YGRKKRRQRRRAVAAASANL (SEQ ID NO: 135)]: binds [4].

B34: YGRKKRRQRRRAVAATYSNL (SEQ ID NO: 139) (peptide)
peptide: YGRKKRRQRRRAVAATYSNL
modifications: also: biotinylated, position not given here
notes: TAT plus 9 residues; also called AVC#1793
For B34, the EC50 [1] was 600 nM.

B35: YGRKKRRQRRRAVAATSINL (SEQ ID NO: 138) (peptide)
peptide: YGRKKRRQRRRAVAATSINL
modifications: also: biotinylated, position not given here
notes: TAT plus 9 residues; also called AVC#1791; AVC 1791
In the case of B35, the EC50 [2] is reported as 40 nM, the EC50 (GST-ZO-1 PDZ domain 2) is reported as 8 nM and the EC50 [1] is reported as 40 nM.
